Experimental data from publication PMC10043284.

Biological target: PANX2EM (residues 1-372 of human pannexin 2 with a C-terminal thermostabilized BRIL) (UniProt Q96RD6)
Assay: cryo-EM structure; purified PANX2EM (~6 mg/ml) in 20 mM Tris pH 8.0, 150 mM NaCl, 40 uM GDN, with 1 mM Fluorinated Fos-Choline 8; single-particle analysis, C7 symmetry, 3.92 Å; C1 reconstruction aligned with it

stoichiometry N: 7
Substance: PANX2EM (residues 1-372 of human pannexin 2 with a C-terminal thermostabilized BRIL) (from UniProt Q96RD6-3 1-372)
